{"source": "paper PMC9246348", "proteins": {"B1": {"name": "UCK2 (Homo sapiens) (protein)", "chain": "MAGDSEQTLQNHQQPNGGEPFLIGVSGGTASGKSSVCAKIVQLLGQNEVDYRQKQVVILSQDSFYRVLTSEQKAKALKGQFNFDHPDAFDNELILKTLKEITEGKTVQIPVYDFVSHSRKEETVTVYPADVVLFEGILAFYSQEVRDLFQMKLFVDTDADTRLSRRVLRDISERGRDLEQILSQYITFVKPAFEEFCLPTKKYADVIIPRGADNLVAINLIVQHIQDILNGGPSKRQTNGCLNGYTPSRKRQASESSSRPH"}}, "key": {"[1]": {"substrate": "Nc1ccn([C@@H]2O[C@H](CO)[C@@H](O)[C@H]2O)c(=O)n1", "assay": "ADP-Glo kinase assay", "format": "biochemical, Homo sapiens", "conditions": "100 µM ATP, 50 mM Tris pH 7.5, 5 mM MgCl2, 2 mM DTT, room temperature"}, "[2]": {"substrate": "O=c1ccn([C@@H]2O[C@H](CO)[C@@H](O)[C@H]2O)c(=O)[nH]1", "assay": "ADP-Glo kinase assay", "format": "biochemical, Homo sapiens", "conditions": "100 µM ATP, 50 mM Tris pH 7.5, 5 mM MgCl2, 2 mM DTT, room temperature"}}, "data": [{"protein": "B1", "values": [{"measurement": "Km", "setting": "[1]", "value": 25.07, "unit": "µM"}, {"measurement": "Vmax", "setting": "[1]", "value": 1.09, "unit": "µmol/min/mg"}, {"measurement": "kcat/Km", "setting": "[1]", "value": 35000, "unit": "M⁻¹ s⁻¹"}, {"measurement": "Km", "setting": "[2]", "value": 207.3, "unit": "µM"}, {"measurement": "Vmax", "setting": "[2]", "value": 3.98, "unit": "µmol/min/mg"}, {"measurement": "kcat/Km", "setting": "[2]", "value": 15000, "unit": "M⁻¹ s⁻¹"}]}]}
